Measurements as given in patent US20080008651A1, “Screening Methods and Transgenic Animals for the Treatment of Beta-Globin Related Disease and Conditions” (THE REGENTS OF THE UNIVERSITY OF MICHIGAN, published 2008).

T1: mouse TR4 orphan nuclear receptor, Flag-tagged at the amino terminus, wild type (mouse, UniProt P49117 1-596)
T1 construct: also called wild type TR4; not shown: Flag tag at the amino terminus
T1 sequence (looked up): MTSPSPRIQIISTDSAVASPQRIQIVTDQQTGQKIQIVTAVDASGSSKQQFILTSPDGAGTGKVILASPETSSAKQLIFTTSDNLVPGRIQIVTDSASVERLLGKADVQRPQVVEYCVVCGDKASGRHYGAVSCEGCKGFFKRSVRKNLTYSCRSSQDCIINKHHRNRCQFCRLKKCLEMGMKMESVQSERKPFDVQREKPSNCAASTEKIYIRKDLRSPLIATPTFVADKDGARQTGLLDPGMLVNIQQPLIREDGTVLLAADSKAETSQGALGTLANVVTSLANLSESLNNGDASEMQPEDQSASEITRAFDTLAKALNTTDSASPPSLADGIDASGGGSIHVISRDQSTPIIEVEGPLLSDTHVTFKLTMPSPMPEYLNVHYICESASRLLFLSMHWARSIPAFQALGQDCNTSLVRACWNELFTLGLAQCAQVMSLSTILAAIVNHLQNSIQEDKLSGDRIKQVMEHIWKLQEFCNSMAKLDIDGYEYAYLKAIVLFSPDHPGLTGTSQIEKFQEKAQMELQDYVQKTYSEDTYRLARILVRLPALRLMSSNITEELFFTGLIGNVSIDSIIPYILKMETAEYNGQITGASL

T2: DRED complex (TR2/TR4 heterodimer DNA-binding core) (Mus musculus, UniProt Q505F1;P49117 Q505F1:1-590,P49117:1-596)
T2 sequence 1: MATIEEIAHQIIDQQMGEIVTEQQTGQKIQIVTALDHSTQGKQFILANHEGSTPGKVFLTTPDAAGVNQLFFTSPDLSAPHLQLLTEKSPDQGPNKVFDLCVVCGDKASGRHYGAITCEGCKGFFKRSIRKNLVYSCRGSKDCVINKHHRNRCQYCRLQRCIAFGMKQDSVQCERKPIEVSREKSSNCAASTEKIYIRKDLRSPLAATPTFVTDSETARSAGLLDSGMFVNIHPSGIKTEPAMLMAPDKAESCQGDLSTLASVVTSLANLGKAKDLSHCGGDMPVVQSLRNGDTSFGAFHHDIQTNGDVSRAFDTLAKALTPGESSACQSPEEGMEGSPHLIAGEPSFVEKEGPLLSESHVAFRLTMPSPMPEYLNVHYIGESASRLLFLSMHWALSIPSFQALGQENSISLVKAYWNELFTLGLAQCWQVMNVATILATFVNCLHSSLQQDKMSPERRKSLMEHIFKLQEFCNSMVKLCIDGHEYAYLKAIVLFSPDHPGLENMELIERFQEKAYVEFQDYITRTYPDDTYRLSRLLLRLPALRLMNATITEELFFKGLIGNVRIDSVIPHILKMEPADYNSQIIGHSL
T2 sequence 2: T1 sequence (looked up)

B1: mouse TR2 orphan nuclear receptor, Flag-tagged at the amino terminus, wild type (receptor, UniProt Q505F1 1-590, looked up)
chain: T2 sequence 1
notes: also called wild type TR2; not shown: Flag tag at the amino terminus
B2: epsilon distal DR (dsDNA)
DNA 1: CCCTGAGGACACAGGTCAGCCTTG
DNA 2: CAAGGCTGACCTGTGTCCTCAGGG
B3: epsilon proximal DR (dsDNA)
DNA 1: CAGCCTTGACCAATGACTTTTA
DNA 2: TAAAAGTCATTGGTCAAGGCTG
B4: epsilon-y distal DR (dsDNA)
DNA 1: CCATGAGGACCACGGGTCAGGCTGA
DNA 2: TCAGCCTGACCCGTGGTCCTCATGG
B5: gamma DR (dsDNA)
DNA 1: GCCTTGCCTTGACCAATAGCCTTGACAA
DNA 2: TTGTCAAGGCTATTGGTCAAGGCAAGGC
B6: beta-h1 DR (dsDNA)
DNA 1: CCCAGACTCTCTTGACCAATAGCCTCAGAGTCCT
DNA 2: AGGACTCTGAGGCTATTGGTCAAGAGAGTCTGGG
B7: epsilon-y proximal DR (dsDNA)
DNA 1: TCAGGCTGACCAATGGCTTCAAA
DNA 2: TTTGAAGCCATTGGTCAGCCTGA
B8: beta-major (dsDNA)
DNA 1: TGGTAAGGGCCAATCTGCTCACA
DNA 2: TGTGAGCAGATTGGCCCTTACCA
B9: beta (dsDNA)
DNA 1: TAGGGTTGGCCAATCTACTCCC
DNA 2: GGGAGTAGATTGGCCAACCCTA

Legend:
[1] = target: TR4 coexpressed with dnTR2 dnTR2 chain: three Lys/Arg to Glu in DNA binding domain (Mus musculus) (UniProt P49117+Q505F1); test: EMSA; settings: TR4 binding diminished by about 80% (TR4 alone = 100%)
[2] = target: TR4 coexpressed with dnTR4 dnTR4 chain: three Lys/Arg to Glu in DNA binding domain (Mus musculus) (UniProt P49117+P49117); test: EMSA; settings: TR4 binding diminished by about 80% (TR4 alone = 100%)
[3] = target: T1, mouse TR4 orphan nuclear receptor, …; test: EMSA of nuclear extracts of co-transfected 293T cells on the ε distal DR probe; heterodimer inferred
Experimental: 20 μg of expression plasmid was mixed with 40 μl of lipofectamine 2000 (Invitrogen) and then added to each dish according to the manufacturer's instruction. Forty-eight hours after transfection, cells were harvested and nuclear extracts were prepared.
(§1) Electrophoretic Gel Mobility Shift Assay (EMSA). Nuclear extracts preparation, binding reactions, and electrophoresis were performed as described previously (Tanimoto et al., 2000). The following blunt ended oligonucleotides were used as probes or competitors in EMSA (only sense strands are shown): ε distal DR, 5′-[…]-3′ (SEQ ID NO: 19); ε proximal DR, 5′-[…]-3′ (SEQ ID NO: 20); γ DR, 5′-[…]-3′ (SEQ ID NO: 21); β, 5′-[…]-3′ (SEQ ID NO: 22); εy distal DR, 5′-[…]-3′ (SEQ ID NO: 23); εy proximal DR, 5′-[…]-3′ (SEQ ID NO: 24); βh1 DR, 5′-[…]-3′ (SEQ ID NO: 25); β^major, 5′-[…]-3′ (SEQ ID NO: 26).
After transfection, nuclear extracts were prepared and examined for binding to the ε distal-DR element by EMSA (FIG. 1C). […] When TR2 and TR4 were coexpressed to generate TR2/TR4 heterodimers (Tanabe et al., 2002), generated an even more intense signal.

[4] = target: T2, DRED complex (TR2/TR4 heterodimer …); test: competition; EMSA competition vs 1.1 nM 32P epsilon distal DR probe; unlabeled competitor; settings: protein: extract; tags: native, MEL mouse erythroleukemia cell nuclear extract; label: 32P (probe); blunt ended
Experimental: as §1
(§2) Free and bound ³²P-labeled probe was quantified on a PhosphoImager. The competitive binding experiments were then performed using 1.1 nM ³²P-labeled ε distal DR probe and 70 pM to 2 μM of each competitor double-strand oligonucleotide to determine the 50% inhibitory concentration (IC₅₀). The equilibrium dissociation constant (Ki) for each competitor was then determined by the following equation (Cheng and Prusoff, 1973): […]

[5] = target: T2, DRED complex (TR2/TR4 heterodimer …); test: EMSA; saturation binding, MEL nuclear extract; settings: protein: extract; tags: native, MEL mouse erythroleukemia cell nuclear extract; label: 32P (probe); blunt ended
Experimental: as §1, §2

[6] = target: T2, DRED complex (TR2/TR4 heterodimer …); test: competition; EMSA competition vs 1.1 nM 32P epsilon distal DR probe; settings: protein: extract; tags: native, MEL mouse erythroleukemia cell nuclear extract; blunt ended
Experimental: as §1, §2

[7] = target: T2, DRED complex (TR2/TR4 heterodimer …); test: competition; EMSA competition vs 1.1 nM 32P epsilon distal DR probe; judged too low for functional association; settings: protein: extract; tags: native, MEL mouse erythroleukemia cell nuclear extract; blunt ended
Experimental: as §1, §2

Molecule	Ki [6] [µM]	Ki [7] [µM]	further results
CCCTGAGGACACAGGTCAGCCTTG (double strand) [epsilon distal DR]			binding signal [1]: 20%; binding signal [2]: 20%
B1			binding result [3]: binds
B2			Ki [4]: 0.00097 µM; Kd [5]: 0.00056 µM
B3	0.0028		
B4	0.0041		
B5	0.013		
B6	0.018		
B7		0.059	
B8		0.17	
B9		0.42	
